We go through six substances from patent publication US20210087271A1.

Assay [1] has as its target FcγRIIIA (human) (UniProt P08637). Nature of the assay: SPR Biacore 8K; IgG captured on biotinylated CD3 peptide SA chip; 1 µM FcγRIIIA, pH 7.4.
The target of assay [2] is FcγRIIA (human) (UniProt P12318). Nature of the assay: SPR Biacore 8K; IgG captured on biotinylated CD3 peptide SA chip; 1 µM FcγRIIA, pH 7.4.
Assay [3] deals with FcRn (UniProt P55899). In words: SPR Biacore 8K; IgG captured on biotinylated CD3 peptide SA chip; 1 µM FcRn, pH 6.0.
UniProt P55899, sequence (P55899 24-297 limits assumed, chain 1 of 2): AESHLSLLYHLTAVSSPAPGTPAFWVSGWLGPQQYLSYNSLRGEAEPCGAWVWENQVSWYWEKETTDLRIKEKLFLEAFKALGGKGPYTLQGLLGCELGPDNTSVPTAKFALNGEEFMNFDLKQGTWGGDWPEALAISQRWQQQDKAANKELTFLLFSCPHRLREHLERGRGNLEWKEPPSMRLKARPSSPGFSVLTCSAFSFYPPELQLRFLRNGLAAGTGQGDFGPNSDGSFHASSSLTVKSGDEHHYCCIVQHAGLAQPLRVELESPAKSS
UniProt P55899, sequence (P61769 21-119 limits assumed, chain 2 of 2, further chain): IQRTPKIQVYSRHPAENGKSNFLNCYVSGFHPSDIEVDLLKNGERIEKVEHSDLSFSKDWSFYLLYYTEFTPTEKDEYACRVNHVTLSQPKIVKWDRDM
Assay [4] concerns the target C1q (UniProt P02745). In words: flow cytometry; antibody on CD3 peptide-coated SA Dyna Beads incubated with C1q.
UniProt P02745, sequence (P02745 23-245 limits assumed, chain 1 of 3): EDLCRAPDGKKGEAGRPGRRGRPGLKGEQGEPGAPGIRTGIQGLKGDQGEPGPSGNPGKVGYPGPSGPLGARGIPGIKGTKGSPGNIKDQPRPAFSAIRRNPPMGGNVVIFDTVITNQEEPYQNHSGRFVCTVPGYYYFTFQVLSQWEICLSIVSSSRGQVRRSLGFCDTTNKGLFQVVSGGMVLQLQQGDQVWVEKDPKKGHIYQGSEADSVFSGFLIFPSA
UniProt P02745, sequence (P02746 28-253 limits assumed, chain 2 of 3, further chain): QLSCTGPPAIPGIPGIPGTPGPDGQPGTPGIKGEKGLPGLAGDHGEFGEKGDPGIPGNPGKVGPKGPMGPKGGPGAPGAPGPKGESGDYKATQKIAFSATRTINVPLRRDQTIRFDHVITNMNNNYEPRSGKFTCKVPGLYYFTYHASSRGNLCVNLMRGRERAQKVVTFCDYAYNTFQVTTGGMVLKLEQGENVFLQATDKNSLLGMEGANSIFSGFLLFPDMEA
UniProt P02745, sequence (P02747 29-245 limits assumed, chain 3 of 3, further chain): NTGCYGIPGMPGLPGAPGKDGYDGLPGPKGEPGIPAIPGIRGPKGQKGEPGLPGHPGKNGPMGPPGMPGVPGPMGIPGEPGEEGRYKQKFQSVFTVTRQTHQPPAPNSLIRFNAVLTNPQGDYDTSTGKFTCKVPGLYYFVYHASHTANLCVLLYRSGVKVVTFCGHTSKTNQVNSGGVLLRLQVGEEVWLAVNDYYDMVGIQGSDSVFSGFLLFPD
The target in assay [5] is FcγR on THP-1 cells. Nature of the assay: flow cytometry; 100 nM antibody pre-complexed with 10 nM biotinylated CD3 peptide, on THP-1 cells.
Assay [6] has as its target C1q (UniProt P02745). Nature of the assay: SPR Biacore 8K; IgG captured on biotinylated CD3 peptide SA chip; 1 µM C1q, pH 7.4.
In assay [7] the target is FcγRI (human) (UniProt P12314). In words: SPR Biacore 8K; IgG captured on biotinylated CD3 peptide SA chip; 100 nM FcγRI, pH 7.4.
UniProt P12314, sequence (P12314 16-288 limits assumed): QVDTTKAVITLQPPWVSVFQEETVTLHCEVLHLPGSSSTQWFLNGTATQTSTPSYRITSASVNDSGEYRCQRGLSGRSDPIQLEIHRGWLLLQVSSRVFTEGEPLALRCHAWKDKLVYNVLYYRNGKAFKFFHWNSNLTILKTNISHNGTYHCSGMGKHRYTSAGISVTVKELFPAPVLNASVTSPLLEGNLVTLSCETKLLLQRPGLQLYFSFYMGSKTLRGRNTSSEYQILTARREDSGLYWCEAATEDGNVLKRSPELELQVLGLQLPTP
Assay [8] addresses FcγRIIA (human) (UniProt P12318). Nature of the assay: SPR Biacore 8K, response vs WT.
Assay [9] addresses FcγRI (human) (UniProt P12314). In words: SPR Biacore 8K, response vs WT.
The target of assay [10] is CD3. Nature of the assay: BLI ForteBio; IgG on AHQ sensor, 100 nM antigen, 1:1 model.

Several values for one entry are separate records, joined by “and”; a condition that tells them apart may be missing. Equal values may be shown once. Some results are limits rather than exact numbers.

UniProt P12318, sequence (P12318 36-218 limits assumed): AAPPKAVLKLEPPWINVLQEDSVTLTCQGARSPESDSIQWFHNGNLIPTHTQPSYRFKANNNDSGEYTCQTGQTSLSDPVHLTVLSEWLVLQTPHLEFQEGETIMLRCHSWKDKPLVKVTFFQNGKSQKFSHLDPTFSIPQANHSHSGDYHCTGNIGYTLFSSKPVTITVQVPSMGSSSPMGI
UniProt P08637, sequence (P08637 17-208 limits assumed): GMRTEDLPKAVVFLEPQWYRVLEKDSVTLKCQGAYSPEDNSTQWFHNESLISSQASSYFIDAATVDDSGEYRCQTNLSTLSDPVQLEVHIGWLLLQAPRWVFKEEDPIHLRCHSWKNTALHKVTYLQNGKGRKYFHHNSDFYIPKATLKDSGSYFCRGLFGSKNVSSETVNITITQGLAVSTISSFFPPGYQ

In the case of “LALE variant of the CD3 antibody (WT engineered to contain L234A and L235E) (from UniProt P01857 1-330)”, the late association response (RU) in assay [1] is 0.4 RU; in [2] it was 0.1 RU; in assay [3] it was 38.9 RU; in assay [6], -27.3 RU. Further, the C1q Binding (MFI) in [4] is 1790 MFI. Besides, the THP-1 Binding (MFI) in assay [5] came out at 5300 MFI.
As to “LALE-PG variant of the CD3 antibody (WT engineered to contain L234A and L235E and P329G) (from UniProt P01857 1-330)”, the late association response (RU) was -0.3 RU in assay [1]; 0.8 RU in assay [7]; 0 RU in [2]; 37.3 RU in [3]; -6.5 RU in assay [6]. This substance also registered a C1q Binding (MFI) in assay [4] of 865 MFI. Also, in assay [5], the THP-1 Binding (MFI) came to 124 MFI. Also, the % reduction of binding compared to WT in assay [8] amounted to 100%; in assay [9], 99.1%.
For “LALA variant of the CD3 antibody (WT engineered to contain L234A and L235A) (from UniProt P01857 1-330)”, the late association response (RU) in assay [1] was 0.6 RU; in assay [7], 23.5 RU; in assay [2], 0.1 RU; in assay [3], 44 RU; in assay [6], -13.9 RU. This substance also had a C1q Binding (MFI) in assay [4] of 1980 MFI. The THP-1 Binding (MFI) in assay [5] amounted to 5270 MFI.
In the case of “LALA-PA variant of the CD3 antibody (WT engineered to contain L234A and L235A and P329A) (from UniProt P01857 1-330)”, the late association response (RU) in [1] was -0.5 RU; in assay [2], -0.1 RU; in [3] it was 45.1 RU; in assay [6], -3.3 RU. The Kd in assay [10] was determined as 3.9 nM. In addition, the C1q Binding (MFI) in assay [4] stood at 621 MFI. For the same substance, the THP-1 Binding (MFI) in assay [5] was found to be 169 MFI. For the same substance, the % reduction of binding compared to WT in assay [8] was > 95% and 100%; in assay [9], > 95% and 97.6%.
For the substance “LALE-PA variant of the CD3 antibody (WT engineered to contain L234A and L235E and P329A) (from UniProt P01857 1-330)”, the late association response (RU) in assay [1] was -0.1 RU; in assay [7], 0.8 RU; in assay [2] it was -0.1 RU; in [3], 38.1 RU; in [6], -23.3 RU. This substance returned a C1q Binding (MFI) in assay [4] of 660 MFI. The substance further had a THP-1 Binding (MFI) in [5] of 124 MFI.
For the substance “LALA-PG variant of the CD3 antibody (WT engineered to contain L234A and L235A and P329G) (from UniProt P01857 1-330)”, the late association response (RU) is -0.3 RU in assay [1]; 2 RU in assay [7]; -0.1 RU in assay [2]; 44.5 RU in assay [3]; -25.1 RU in [6]. The same substance gave a C1q Binding (MFI) in [4] of 676 MFI. This substance returned a THP-1 Binding (MFI) in assay [5] of 146 MFI.
